IntAct's records for PubMed 12615979

B1: Serine/threonine-protein kinase plo1 (Schizosaccharomyces pombe (strain ATCC 38366 / 972)), P50528 (parent)
chain: MASVAIKEPKTAITPKKKSKASRLCFTPPTNLHNNKKNIFYTRYDCIGEGGFARCFRVKDNYGNIYAAKVIAKRSLQNDKTKLKLFGEIKVHQSMSHPNIVGFIDCFEDSTNIYLILELCEHKSLMELLRKRKQLTEPEVRYLMMQILGALKYMHKKRVIHRDLKLGNIMLDESNNVKIGDFGLAALLMDDEERKMTICGTPNYIAPEILFNSKEGHSFEVDLWSAGVVMYALLIGKPPFQDKEVKTIYRKIKANSYSFPSNVDISAEAKDLISSLLTHDPSIRPSIDDIVDHEFFHTGYMASTLPDEILHSMPIWPSSQSKSSFQRNLDFVASASGVGFGNSAGVEKNKPYALRTDEVDNDRILPSVLSPRDRVNPVMKIGPETKPVPSKLSTALHAARKSTDGSLGSRVKVLREESQSFVPTKSAVTEQVEPIQLIRSLSANTVSRLSKVGNMKSDIWISVKKTALKIGMALEAHTHALTSEDADSEPVLFITKWVDYSNKYGLGYQLSDESVGVHFNDDTSLLFSADEEVVEYALHPKDTEIKPYIYPASKVPESIRSKLQLLKHFKSYMGQNLSKAVQDESFEKPKNSTSNTMLFMQHYLRTRQAIMFRLSNGIFQFNFLDHRKVVISSTARKIIVLDKERERVELPLQEASAFSEDLRSRLKYIRETLESWASKMEVS
partner: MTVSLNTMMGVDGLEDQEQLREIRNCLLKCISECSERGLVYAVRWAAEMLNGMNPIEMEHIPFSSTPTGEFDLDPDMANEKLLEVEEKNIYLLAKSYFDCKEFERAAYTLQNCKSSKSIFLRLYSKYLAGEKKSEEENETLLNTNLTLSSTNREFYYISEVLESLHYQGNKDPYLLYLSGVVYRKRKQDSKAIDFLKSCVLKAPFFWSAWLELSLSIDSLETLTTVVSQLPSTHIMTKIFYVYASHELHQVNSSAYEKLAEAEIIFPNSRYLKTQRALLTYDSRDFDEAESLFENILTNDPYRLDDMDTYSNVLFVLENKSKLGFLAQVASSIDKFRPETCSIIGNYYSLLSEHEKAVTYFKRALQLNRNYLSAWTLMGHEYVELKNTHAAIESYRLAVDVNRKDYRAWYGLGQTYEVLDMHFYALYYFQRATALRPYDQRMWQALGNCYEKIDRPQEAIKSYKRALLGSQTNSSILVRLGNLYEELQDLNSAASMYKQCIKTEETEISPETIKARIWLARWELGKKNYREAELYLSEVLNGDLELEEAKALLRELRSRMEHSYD
B2: Serine/threonine-protein kinase plo1 (Schizosaccharomyces pombe (strain ATCC 38366 / 972)), P50528 (parent)
chain: B1 chain
partner: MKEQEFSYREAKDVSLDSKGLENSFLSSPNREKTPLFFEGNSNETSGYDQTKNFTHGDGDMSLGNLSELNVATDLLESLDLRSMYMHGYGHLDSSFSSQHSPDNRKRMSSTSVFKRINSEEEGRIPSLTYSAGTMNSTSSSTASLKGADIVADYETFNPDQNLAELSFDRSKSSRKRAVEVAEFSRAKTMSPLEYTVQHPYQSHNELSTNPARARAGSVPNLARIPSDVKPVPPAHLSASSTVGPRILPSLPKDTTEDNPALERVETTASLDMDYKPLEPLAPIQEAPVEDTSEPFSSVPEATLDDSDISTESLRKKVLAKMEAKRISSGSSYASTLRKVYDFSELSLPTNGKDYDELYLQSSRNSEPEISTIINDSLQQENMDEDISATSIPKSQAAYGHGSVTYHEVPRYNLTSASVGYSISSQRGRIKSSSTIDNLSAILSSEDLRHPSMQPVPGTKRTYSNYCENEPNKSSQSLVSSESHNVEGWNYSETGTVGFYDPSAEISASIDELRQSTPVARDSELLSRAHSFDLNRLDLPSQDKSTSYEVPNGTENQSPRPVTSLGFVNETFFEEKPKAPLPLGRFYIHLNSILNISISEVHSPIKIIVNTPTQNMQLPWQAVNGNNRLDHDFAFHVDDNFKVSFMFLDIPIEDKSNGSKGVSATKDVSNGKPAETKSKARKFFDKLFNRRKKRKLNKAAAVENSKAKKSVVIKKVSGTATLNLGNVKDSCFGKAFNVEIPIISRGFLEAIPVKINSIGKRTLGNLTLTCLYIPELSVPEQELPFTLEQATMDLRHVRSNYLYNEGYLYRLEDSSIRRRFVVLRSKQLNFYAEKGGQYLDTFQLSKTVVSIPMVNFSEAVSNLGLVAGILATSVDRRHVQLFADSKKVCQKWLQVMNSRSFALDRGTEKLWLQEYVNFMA
B3: Serine/threonine-protein kinase plo1 (Schizosaccharomyces pombe (strain ATCC 38366 / 972)), P50528 (parent)
chain: B1 chain
partner: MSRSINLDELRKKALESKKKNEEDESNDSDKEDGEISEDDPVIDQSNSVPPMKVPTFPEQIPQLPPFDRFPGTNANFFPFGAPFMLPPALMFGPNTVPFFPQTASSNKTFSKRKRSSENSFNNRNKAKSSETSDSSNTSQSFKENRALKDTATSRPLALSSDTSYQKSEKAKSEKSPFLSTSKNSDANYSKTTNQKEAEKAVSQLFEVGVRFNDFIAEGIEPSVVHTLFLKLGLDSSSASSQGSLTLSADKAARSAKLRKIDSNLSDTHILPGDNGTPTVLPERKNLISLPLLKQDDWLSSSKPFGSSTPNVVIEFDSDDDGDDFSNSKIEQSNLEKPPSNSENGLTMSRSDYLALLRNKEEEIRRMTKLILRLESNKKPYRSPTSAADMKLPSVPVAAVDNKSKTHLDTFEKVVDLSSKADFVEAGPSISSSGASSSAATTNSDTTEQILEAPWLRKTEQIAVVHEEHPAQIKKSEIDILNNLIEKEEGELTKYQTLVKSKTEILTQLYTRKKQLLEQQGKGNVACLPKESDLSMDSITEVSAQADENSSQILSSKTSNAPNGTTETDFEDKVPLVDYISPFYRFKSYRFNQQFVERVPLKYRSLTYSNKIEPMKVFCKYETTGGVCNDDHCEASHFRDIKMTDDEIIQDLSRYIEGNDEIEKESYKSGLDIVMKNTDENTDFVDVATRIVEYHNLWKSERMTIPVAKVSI
B4: Serine/threonine-protein kinase plo1 (Schizosaccharomyces pombe (strain ATCC 38366 / 972)), P50528 (parent)
chain: B1 chain
partner: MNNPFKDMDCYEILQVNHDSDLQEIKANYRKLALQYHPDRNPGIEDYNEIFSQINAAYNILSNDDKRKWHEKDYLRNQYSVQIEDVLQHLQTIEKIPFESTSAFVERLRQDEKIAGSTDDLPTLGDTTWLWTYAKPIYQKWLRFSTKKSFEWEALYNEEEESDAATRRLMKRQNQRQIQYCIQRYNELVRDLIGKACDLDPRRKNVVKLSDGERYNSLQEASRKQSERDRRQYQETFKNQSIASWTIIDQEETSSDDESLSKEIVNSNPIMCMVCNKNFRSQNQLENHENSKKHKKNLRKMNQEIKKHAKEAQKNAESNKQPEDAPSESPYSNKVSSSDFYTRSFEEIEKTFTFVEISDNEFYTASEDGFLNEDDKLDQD

Variants of: B1
Conditions: with apc8_schpo cut23, O94556

Q: For V533A, which “effect of a mutation on the interaction” value is on record?
A: decreasing interaction

Q: Which “effect of a mutation on the interaction” value does the source give for R605P here?
A: decreasing interaction

Q: How did the “effect of a mutation on the interaction” value turn out when F493L was run?
A: decreasing interaction

Q: For L565F, which “effect of a mutation on the interaction” value is on record?
A: decreasing interaction

Variants of: B2
Conditions: with bud4_schpo mid1, P78953

Q: V533A was tested. Which “effect of a mutation on the interaction” value did it give?
A: decreasing interaction

Q: For V498A, which “effect of a mutation on the interaction” value is on record?
A: decreasing interaction

Variants of: B3
Conditions: with red1_schpo red1, Q9UTR8

Q: How did the “effect of a mutation on the interaction” value turn out when V498A was run?
A: decreasing interaction

Variants of: B4
Conditions: with epr1_schpo epr1, O14213

Q: How did the “effect of a mutation on the interaction” value turn out when K251E was run?
A: disrupting interaction

Q: How did the “effect of a mutation on the interaction” value turn out when I252T was run?
A: disrupting interaction

Q: Which “effect of a mutation on the interaction” value does the source give for V498A here?
A: decreasing interaction

Q: For V533A, which “effect of a mutation on the interaction” value is on record?
A: decreasing interaction

Q: F493L was tested. Which “effect of a mutation on the interaction” value did it give?
A: disrupting interaction

Q: For S256P, which “effect of a mutation on the interaction” value is on record?
A: disrupting interaction
